First the molecules themselves.
B1: TPR 5TU (parent)
chain: GGAUCUUCUCGAUCUAACAAAAAAGACAAAUCUGCCACAAAGCUUGAGAGCAUCUUCGGAUGCAGAGGCGGCAGCCUUCGGUGGCGCGAUAGCGCCAACGUUCUCAACUAUGACACGCAAAACGCGUGCUCCGUUGAAUGGAGUUUAUCAUG

Variants at the floor of the assay were thinned out.

Variants of B1 are the subject of the series. Kind of series: polymerase ribozyme fitness, log enrichment relative to wild type (log ratio); higher = more active; in vitro selection for triplet polymerase activity. In outline: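 Input and output libraries were sequenced on Illumina after a single in vitro selection round, run in triplicate on PCR-built, transcribed mutant libraries of each subunit of a heterodimeric triplet polymerase ribozyme. Selection annealed libraries to a biotinylated primer, the partner subunit and triplets, incubated them frozen at −7 °C, then gel-excised extended constructs for streptavidin-bead capture and RT-PCR. Genotypes with ≥10 input reads and ≥1 read per output were kept. Fitness is the logarithm, taken in base 2, of genotype enrichment divided by wild-type enrichment, using inverse-variance-weighted replicate averages.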
For the variant GGAUCUUCUCGAUCUAACAAAAAAGACAAAUCUGCCACAAAGCUUGAGAGCAUCUACGGAUGCAGAGGCGGCAGCCUUCGGUGGCACGAUAGCGCCAACGUUCUCAACUAUGACACGCAAAACGCGUGCUCCGUUGAAUGGAGUUUAUCAUG, the “polymerase ribozyme fitness (log ratio)” value was -1.16.
Under GGAUCUUCUCGAUCUAACAAAAAAGACAAAUCUGCCACAAAGCUUGAGAGCAUCUACGGAUGCAGAGGCGGCAGCCUUCGGUGGCGCGAUAACGCCAACGUUCUCAACUAUGACACGCAAAACGCGUGCUCCGUUGAAUGGAGUUUAGCAUG stands at most -4.2.
Under GGAUCUUCUCGAUCUAACAAAAAAGACAAAUCUGCCACAAAGCUUGAGAGCAUCUACGGAUGCAGAGGCGGCAGCCUUCGGUGACGCGAUAGCGCCAACGUUCUCAACUAUGACACGCAAAACGCGGGCUCCGUUGAAUGGAGUUUAUCAUG stands -3.06.
Under GGAUCUUCUCGAUCUAACAAAAAAGACAAAUCUGCCACAAAGCUUGAGAGCAUCUACGGAUGCAGAGGCGGCAGCCUUCGGUGUCGCGCUAGCGCCAACGUUCUCAACUAUGACACGCAAAACGCGUGCUCCGUUGAAUGGUGUUUAUCAUG stands -3.24; under GGAUCUUCUCGAUCUAACAAAAAAGACAAAUCUGCCACAAAGCUUGAGAGCAUCUACGGACGCAGAGGCGGCAGCCUUCGGUGGCGCGAUAGCGCCAACGUUCUCAACUAUGACACGCAAAACGCGUGCUCCGUUGAAUGGAGUUUAUCAUG, -3.45; under GGAUCUUCUCGAUCUAACAAAAAAGACAAAUCUGCCACAAAGCUUGAGAGCAUCUACGGAUGCAGAGGCGGCAGCCUUCGGUGGCGCGAUAGCGCCAACGUUCUCAACUAUGACACGCAAAACGCGUCCUCCGUUGAAUGGAGUUUAUCAUG, -2.8.
Regarding GGAUCUUCUCGAUCUAACAAAAAAGACAAAUCUGCCACAAAGCUUGAGAGCAUCUACGGAUGCAGAGGCGGCAGCCUUCUGUGGCGCGAUAGCGCCAAAGUUCUCAACUAUGACACGCAAACCGCGUGCUCCGUUGAAUGGAGUUUAUCAUG, the “polymerase ribozyme fitness (log ratio)” value was -1.16.
On to GGAUCUUCUCGAUCUAACAAAAAAGACAAAUCUGCCACAAAGCUUGAGAGCAUCUACGGAUGCAGAGGCGGCAGCCUUCGGUGGCGCGAUAGCGCCAACGUUCUCAACUAUGACACGCAAAACGCGUGCUCCGUUGAAUGGAGUUUAUCAUU, for which the “polymerase ribozyme fitness (log ratio)” value is -2.37.
Take GGAUCUUCUCGAUCUAACAAAAAAGACAAAUCUGCCACAAAGCUUGAGAGCAUCUACGGAUGCAGAGGCGGCAGCCUUCGGUGGCGCGAUAGCGCCAACGUUCUCAACUAUGACACGCAAAACGCGUGCUCCGUUGAAUGGAGUUUAUCAUA: the “polymerase ribozyme fitness (log ratio)” value is -2.52.
Next, GGAUCUUCUCGAUCUAACAAAAAAGACAAAUCUGCCACAAAGCUUGAGAGCAUCUACGGAUGCAGAGGCGGCAGCCUUCGCUGGCGCGAUAGCGCCAACGUUCUCAACUAUGACACGCACAACGCGUGCUCCGUUGAAUGAAGUUUAUCAUG: 0.526.
GGAUCUUCUCGAUCUAACAAAAAAGACAAAUCUGCCACAAAGCUUGAGAGCAUCUACGGAUGCAGAGGCGGCACCCUUCGGUGGCGCGAUAGCGCCAACGUUCUCAACUAUGACACGCAAAACGCGUGCUCCGUUGAAUGGAGUUUAUCAUG: the “polymerase ribozyme fitness (log ratio)” value is -4.17.
With GGAUCUUCUCGAUCUAACAAAAAAGACAAAUCUGCCACAAAGCUUGAGAGCAUCUACGGAUGCAGAGGCGGCAGCCUUCGGUGACGCGAUAGCGCCAACGUUCUCAACUAUGACACGCAAAACGCGUGCUCCGUUGAAUGGAGUUUAUCAUG, the “polymerase ribozyme fitness (log ratio)” value is -1.06.
Under GGAUCUUCUCGAUCUAACAAAAAAGACAAAUCUGCCACAAAGCUUGAGAGCAUCUACGGAUGCAGAGGCGGCAGCCUUCGGUGACGCGACAGCGCCAACGUUCUCAACUAUGACACGCAAAACGAGUGCUCCGUUGAAUGGAGUUUAUCAUG stands at most -4.2; under GGAUCUUCUCGAUCUAACAAAAAAGACAAAUCUGCCACAAAGCUUGAGAGCAUCUACGGAUGCAGAGGCGGCAGCCUUCGGUGGCGCGAUAGCGCCAACGUUCUCAACUAUGACACCCAAAACGCGUGCUCCGUUGAAUGGAGUUUAUCAUG, -0.369; under GGAUCUUCUCGAUCUAACAAAAAAGACAAAUCUGCCACAAAGCUUGAGAGCAUCUACGGAUGCAGAGGCGGCAGCCUUCGGUGGCGCGAUAGCGCCAACGUUCUCAACUAUGACACACAAAACGCGUGCUCCGUUGAAUGGAGUUUAUCAUG, -0.176.
Next, GGAUCUUCUCGAUCUAACAAAAAAGACAAAUCUGCCACAAAGCUUGAGAGCAUCUACGGAGGCAGAGGCGGCAGCCUUCGGUGGCGCGAUCGCGCCAACGUUCUCAACUAUGACACGCAAAACGCGCGCUCCGUUGAAUGGAGUUUACCUUG: at most -4.2; GGAUCUUCUCGAUCUAACAAAAAAGACAAAUCUGCCACAAAGCUUGAGAGCAUCUACGGAUGCAGAGGCGGCAGCCUUCGGUGGCGCGAUAGCGCCAACGUUCUCAACUAUGACACGCAAAACGCGUGCUCCGUUAAAUGGAGUUUAUCAUG: -0.463.
On to GGAUCUUCUCGAUCUAACAAAAAAGACAAAUCUGCCACAAAGCUUGAGAGCAUCUACGGAUGCAGAGGCGGCAGCCUUCGGUGGCGCGAUAGCUACAACGUUCUCAACUAUGACACGCAAAACGCGUGCUCCGUUGAAUGGAUUUUAUCAUG, for which the “polymerase ribozyme fitness (log ratio)” value was -3.39.
For the variant GGAUCUUCUCGAUCUAACAAAAAAGACAAAUCUGCCACAAAGCUUGAGAGCAUCUACGGAUGCAGAGGCGGCAGCCUUCUGUGUCGCGAUAGCGCCAACGUGCUCAACUAUGACACGCAAAACUCGUGCUCCGUUGAAUGGAGUUUAUCAUG, the “polymerase ribozyme fitness (log ratio)” value was at most -4.2.
